The values below come from patent US20240261333A1 (published 2024).

Experiment in all cases: co-IP, anti-FLAG, lysate of cells with C-FLAG B3GNT2; mass spectrometry
One test addresses T1, UBAP2L (human, UniProt Q14157 1-1087).
T1 construct: also called NP_055662.3 (+3)
T1 sequence (looked up): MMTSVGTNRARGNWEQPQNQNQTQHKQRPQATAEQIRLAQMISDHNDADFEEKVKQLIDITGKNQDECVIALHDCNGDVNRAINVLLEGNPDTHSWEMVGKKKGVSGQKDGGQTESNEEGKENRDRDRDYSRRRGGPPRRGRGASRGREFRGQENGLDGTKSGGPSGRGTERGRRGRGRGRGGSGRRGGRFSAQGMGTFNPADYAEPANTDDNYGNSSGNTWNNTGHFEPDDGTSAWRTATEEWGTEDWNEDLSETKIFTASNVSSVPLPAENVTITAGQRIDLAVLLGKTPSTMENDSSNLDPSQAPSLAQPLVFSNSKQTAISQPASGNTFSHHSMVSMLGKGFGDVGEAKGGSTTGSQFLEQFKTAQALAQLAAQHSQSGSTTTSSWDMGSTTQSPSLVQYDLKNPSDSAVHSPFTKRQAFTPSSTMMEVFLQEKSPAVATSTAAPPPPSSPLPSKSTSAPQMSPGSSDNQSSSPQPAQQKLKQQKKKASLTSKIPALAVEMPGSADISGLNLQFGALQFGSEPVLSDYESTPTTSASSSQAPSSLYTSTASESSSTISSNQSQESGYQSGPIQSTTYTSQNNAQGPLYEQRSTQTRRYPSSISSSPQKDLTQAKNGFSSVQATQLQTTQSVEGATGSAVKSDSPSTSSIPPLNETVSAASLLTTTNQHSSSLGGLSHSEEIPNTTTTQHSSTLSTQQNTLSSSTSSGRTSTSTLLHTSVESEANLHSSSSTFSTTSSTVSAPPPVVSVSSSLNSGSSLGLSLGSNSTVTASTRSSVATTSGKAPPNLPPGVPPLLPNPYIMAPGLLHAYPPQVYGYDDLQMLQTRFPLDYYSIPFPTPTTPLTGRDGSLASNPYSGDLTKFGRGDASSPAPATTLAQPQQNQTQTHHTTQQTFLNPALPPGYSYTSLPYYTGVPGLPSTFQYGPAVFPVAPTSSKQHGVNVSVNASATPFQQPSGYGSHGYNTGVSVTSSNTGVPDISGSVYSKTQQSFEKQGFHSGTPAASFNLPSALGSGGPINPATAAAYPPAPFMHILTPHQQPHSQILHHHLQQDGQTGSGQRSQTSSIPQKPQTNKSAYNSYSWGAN

Another test has as its target T2, KRT6B (human, UniProt P04259 2-564).
T2 construct: also called NP_00546.2
T2 sequence (looked up): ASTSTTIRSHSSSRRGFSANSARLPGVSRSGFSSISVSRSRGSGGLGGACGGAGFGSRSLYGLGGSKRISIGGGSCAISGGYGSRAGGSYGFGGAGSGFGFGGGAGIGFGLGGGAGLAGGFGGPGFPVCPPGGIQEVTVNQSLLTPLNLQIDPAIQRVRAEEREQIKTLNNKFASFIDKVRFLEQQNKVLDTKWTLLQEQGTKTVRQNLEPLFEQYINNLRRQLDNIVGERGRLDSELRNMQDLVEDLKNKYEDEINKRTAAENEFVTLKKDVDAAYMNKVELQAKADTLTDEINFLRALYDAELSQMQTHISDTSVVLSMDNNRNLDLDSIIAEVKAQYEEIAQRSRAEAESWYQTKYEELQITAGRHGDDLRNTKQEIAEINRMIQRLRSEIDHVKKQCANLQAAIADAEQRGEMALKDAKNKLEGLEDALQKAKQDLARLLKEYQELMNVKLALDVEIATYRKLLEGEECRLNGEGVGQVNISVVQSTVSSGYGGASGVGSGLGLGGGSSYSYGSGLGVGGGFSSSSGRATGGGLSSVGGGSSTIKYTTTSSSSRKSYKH

A further test concerns the target T3, PRBP1 (human, UniProt P26599 1-557).
T3 construct: Label 'PRBP1' is probably a misprint of PTBP1; also called NP_002810.1 (+4)

The target in a further test is T4, DDX5 (human, UniProt P17844 1-614).
T4 construct: also called NP_001307526.1
T4 sequence (P17844 whole entry): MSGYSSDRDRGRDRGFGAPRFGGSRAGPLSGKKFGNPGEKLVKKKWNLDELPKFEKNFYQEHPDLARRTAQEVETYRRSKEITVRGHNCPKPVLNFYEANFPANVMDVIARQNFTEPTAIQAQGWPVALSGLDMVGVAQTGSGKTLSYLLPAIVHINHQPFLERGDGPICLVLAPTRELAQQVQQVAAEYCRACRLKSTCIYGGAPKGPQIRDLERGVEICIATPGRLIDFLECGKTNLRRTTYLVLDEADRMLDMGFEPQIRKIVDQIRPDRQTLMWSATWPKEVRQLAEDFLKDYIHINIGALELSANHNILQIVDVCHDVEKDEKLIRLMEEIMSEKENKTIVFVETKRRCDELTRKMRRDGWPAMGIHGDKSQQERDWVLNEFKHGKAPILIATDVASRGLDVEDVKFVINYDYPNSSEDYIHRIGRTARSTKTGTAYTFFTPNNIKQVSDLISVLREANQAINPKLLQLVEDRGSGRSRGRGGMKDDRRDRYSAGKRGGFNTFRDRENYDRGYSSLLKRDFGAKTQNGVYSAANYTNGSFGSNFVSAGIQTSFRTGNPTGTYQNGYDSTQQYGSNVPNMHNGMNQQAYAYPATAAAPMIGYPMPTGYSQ

T3 sequence (P26599 whole entry): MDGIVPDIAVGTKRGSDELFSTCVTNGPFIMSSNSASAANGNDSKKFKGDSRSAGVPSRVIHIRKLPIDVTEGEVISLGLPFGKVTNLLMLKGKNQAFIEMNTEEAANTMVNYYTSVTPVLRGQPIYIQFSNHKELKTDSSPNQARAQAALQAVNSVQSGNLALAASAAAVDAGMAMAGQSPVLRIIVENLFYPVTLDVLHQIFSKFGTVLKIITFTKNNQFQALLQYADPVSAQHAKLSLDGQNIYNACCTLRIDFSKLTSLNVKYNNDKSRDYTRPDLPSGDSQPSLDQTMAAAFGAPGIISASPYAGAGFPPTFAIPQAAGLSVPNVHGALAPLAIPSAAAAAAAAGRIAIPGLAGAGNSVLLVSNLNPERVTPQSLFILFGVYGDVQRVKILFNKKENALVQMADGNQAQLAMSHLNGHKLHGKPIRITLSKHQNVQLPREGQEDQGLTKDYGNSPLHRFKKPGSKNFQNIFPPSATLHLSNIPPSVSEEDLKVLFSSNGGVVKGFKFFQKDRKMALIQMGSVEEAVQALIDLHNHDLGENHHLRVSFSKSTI

B1: C-terminal FLAG tagged B3GNT2 (enzyme, human, UniProt Q9NY97 1-397, looked up)
chain: MSVGRRRIKLLGILMMANVFIYFIMEVSKSSSQEKNGKGEVIIPKEKFWKISTPPEAYWNREQEKLNRQYNPILSMLTNQTGEAGRLSNISHLNYCEPDLRVTSVVTGFNNLPDRFKDFLLYLRCRNYSLLIDQPDKCAKKPFLLLAIKSLTPHFARRQAIRESWGQESNAGNQTVVRVFLLGQTPPEDNHPDLSDMLKFESEKHQDILMWNYRDTFFNLSLKEVLFLRWVSTSCPDTEFVFKGDDDVFVNTHHILNYLNSLSKTKAKDLFIGDVIHNAGPHRDKKLKYYIPEVVYSGLYPPYAGGGGFLYSGHLALRLYHITDQVHLYPIDDVYTGMCLQKLGLVPEKHKGFRTFDIEEKNKNNICSYVDLMLVHSRKPQEMIDIWSQLQSAHLKC
notes: Overexpressed in cells and pulled down from the lysate with mouse anti-FLAG antibody; also called C-FLAG B3GNT2; C-term flag; not shown: C-terminal FLAG tag
On to B1, for which the “co-IP mass spectrometry count” value amounted to 19 with UBAP2L, 331 with KRT6B, 9 in the test with PRBP1 and 22 in the test with DDX5.
